Test results: the Human Domainome abundance scans (Beltran et al. 2025)
± gives the uncertainty stated by the source.

B1: Gamma-crystallin C, residues 91 to 170; numbered along this chain, P07315 (parent)
chain: RLYEREDHKGLMMELSEDCPSIQDRFHLSEIRSLHVLEGCWVLYELPNYRGRQYLLRPQEYRRCQDWGAMDAKAGSLRRV

Variants of: B1
Assay: abundance fitness (aPCA) (normalised: wild type 0, dead -1); higher = more abundant; growth selection in yeast, the domain comes from the species named
Details: Homo sapiens

Abundance fitness, by site and new letter:
L34: G -0.725 ± 0.077 | T -0.848 ± 0.26 | M 0.027 ± 0.093 | E -0.537 ± 0.12 | W -0.486 ± 0.054 | Y -0.572 ± 0.31 | C -0.161 ± 0.08 | F -0.097 ± 0.097 | A -0.064 ± 0.065 | Q -0.781 ± 0.45 | I 0.056 ± 0.077 | S -0.897 ± 0.13 | V -0.043 ± 0.064 | D -0.579 ± 0.27
S29: T -0.012 ± 0.089 | W -0.113 ± 0.056 | L -0.165 ± 0.057 | R -0.043 ± 0.04 | Y -0.132 ± 0.085 | M -0.408 ± 0.16 | P -0.199 ± 0.084 | Q -0.086 ± 0.085 | N -0.003 ± 0.13 | V -0.328 ± 0.094
H35: G -0.845 ± 0.12 | P -0.789 ± 0.32 | T 0.081 ± 0.069 | C -0.206 ± 0.076 | W -0.354 ± 0.12 | L -0.15 ± 0.06 | N -0.09 ± 0.11 | E 0.139 ± 0.091 | S -0.05 ± 0.056 | M -0.222 ± 0.087 | K -0.029 ± 0.1 | F -0.325 ± 0.1 | V 0.036 ± 0.061 | Y -0.202 ± 0.14 | A -0.053 ± 0.057 | D -0.107 ± 0.086 | I -0.004 ± 0.1
E38: I -0.711 ± 0.25 | F -0.216 ± 0.091 | Q 0.171 ± 0.13 | M -0.222 ± 0.097 | G -0.186 ± 0.044 | K -0.083 ± 0.12 | D 0.013 ± 0.069 | L -0.379 ± 0.073 | V -0.222 ± 0.053 | S -0.015 ± 0.044 | P -0.642 ± 0.12 | A -0.059 ± 0.069 | H -0.119 ± 0.13 | C -0.242 ± 0.077 | N 0.102 ± 0.16
Y44: A -0.671 ± 0.18 | Q -0.567 ± 0.4 | P -0.905 ± 0.21 | F -0.069 ± 0.088 | V -0.784 ± 0.13 | H -0.306 ± 0.15 | W -0.599 ± 0.081 | S -0.568 ± 0.078 | L -0.648 ± 0.086 | R -0.478 ± 0.09 | E -0.957 ± 0.27 | N -0.325 ± 0.13 | G -0.608 ± 0.073 | T -1.04 ± 0.24
R50: S -0.007 ± 0.087 | Q -0.012 ± 0.16 | C -0.021 ± 0.097 | L -0.063 ± 0.062 | K -0.029 ± 0.16 | M -0.108 ± 0.17 | N -0.242 ± 0.31 | T -0.002 ± 0.096 | F -0.375 ± 0.22 | Y -0.606 ± 0.42 | W -0.664 ± 0.14 | P -0.916 ± 0.23 | V -0.085 ± 0.1 | G 0.04 ± 0.082 | E -0.068 ± 0.096 | A -0.066 ± 0.082
L37: V -0.033 ± 0.06 | P -0.813 ± 0.2 | K -0.136 ± 0.16 | H -0.351 ± 0.12 | S -0.372 ± 0.079 | F -0.263 ± 0.099 | D -0.254 ± 0.12 | M -0.158 ± 0.087 | E -0.481 ± 0.12 | T -0.326 ± 0.11 | A -0.553 ± 0.1 | C -0.578 ± 0.34 | Y -0.3 ± 0.12 | W -0.799 ± 0.15 | I -0.062 ± 0.13 | N -0.363 ± 0.14 | Q -0.256 ± 0.13
C40: D 0.058 ± 0.086 | V 0.002 ± 0.06 | I -0.222 ± 0.2 | G -0.186 ± 0.051 | Q 0.055 ± 0.1 | T 0.07 ± 0.086 | N 0.119 ± 0.14 | Y -0.284 ± 0.091 | W -0.103 ± 0.097 | A -0.025 ± 0.065 | P -0.446 ± 0.11 | E 0.052 ± 0.081 | L -0.042 ± 0.065 | S 0.041 ± 0.03 | H -0.09 ± 0.16 | R -0.138 ± 0.072 | K -0.202 ± 0.16
E45: K -0.465 ± 0.15 | R -0.437 ± 0.063 | M -0.792 ± 0.28 | L -0.875 ± 0.14 | D -0.265 ± 0.33 | G -0.492 ± 0.065 | S -0.149 ± 0.071 | W -0.644 ± 0.15 | T -0.118 ± 0.068 | P -0.832 ± 0.16 | H -0.582 ± 0.19 | I -0.762 ± 0.21 | N -0.933 ± 0.5 | A -0.191 ± 0.071 | Q -0.211 ± 0.086
I31: P -0.951 ± 0.32 | D -0.843 ± 0.21 | C -0.833 ± 0.28 | E -0.987 ± 0.4 | T -0.789 ± 0.14 | N -0.912 ± 0.17 | G -1.01 ± 0.15 | K -1.02 ± 0.49 | W -0.848 ± 0.16 | R -0.776 ± 0.15 | A -0.611 ± 0.074 | S -0.665 ± 0.16 | Q -0.992 ± 0.2
L43: C -0.701 ± 0.13 | H -0.757 ± 0.29 | Y -0.224 ± 0.15 | I -0.251 ± 0.16 | V -0.81 ± 0.12 | M -0.099 ± 0.14 | N -0.673 ± 0.32 | Q -0.606 ± 0.22 | G -0.721 ± 0.071 | P -0.992 ± 0.4 | R -1.01 ± 0.15 | A -0.931 ± 0.24 | T -0.674 ± 0.27 | E -0.804 ± 0.16 | S -0.865 ± 0.2 | F -0.645 ± 0.19
R52: E -0.28 ± 0.19 | T -0.058 ± 0.16 | P -0.093 ± 0.16 | L -0.219 ± 0.087 | N -0.031 ± 0.49 | S -0.234 ± 0.12 | V -0.137 ± 0.1 | H -0.324 ± 0.19 | D -0.338 ± 0.12 | A 0.009 ± 0.11 | G -0.402 ± 0.21 | C -0.587 ± 0.31 | I -0.31 ± 0.19 | W -0.523 ± 0.16 | Q -0.128 ± 0.13
N48: E -0.314 ± 0.096 | W -0.151 ± 0.045 | G -0.07 ± 0.055 | H -0.022 ± 0.12 | R -0.234 ± 0.053 | Y -0.006 ± 0.23 | Q -0.017 ± 0.12 | T -0.823 ± 0.2 | D -0.007 ± 0.13 | F 0.077 ± 0.11 | C -0.339 ± 0.17 | A -0.348 ± 0.13 | K -0.215 ± 0.14 | S -0.238 ± 0.069 | P -0.65 ± 0.13 | V -0.929 ± 0.24
Q53: E 0.087 ± 0.086 | C -0.219 ± 0.1 | L -0.78 ± 0.12 | N 0.005 ± 0.35 | K -0.19 ± 0.17 | P -0.144 ± 0.053 | D -0.241 ± 0.2 | F -0.425 ± 0.29 | H -0.386 ± 0.34 | M -0.345 ± 0.17 | A -0.122 ± 0.056 | G -0.103 ± 0.065
V36: M -0.742 ± 0.27 | N -0.772 ± 0.3 | A -0.783 ± 0.17 | I -0.013 ± 0.089 | C -0.836 ± 0.17 | S -0.969 ± 0.35 | L -0.632 ± 0.09 | R -1.08 ± 0.28 | G -0.76 ± 0.095 | Y -0.947 ± 0.5 | W -0.788 ± 0.12 | Q -0.713 ± 0.23 | E -0.88 ± 0.36
G39: V -0.924 ± 0.16 | T -0.892 ± 0.19 | E -0.186 ± 0.089 | H -0.151 ± 0.14 | L -0.89 ± 0.17 | P -0.798 ± 0.31 | C -0.536 ± 0.088 | N -0.65 ± 0.23 | Q -0.853 ± 0.33 | F -0.759 ± 0.082 | M -0.93 ± 0.41 | A -0.56 ± 0.095 | Y -0.566 ± 0.43 | W -0.94 ± 0.25 | D -0.298 ± 0.13
G51: S -0.962 ± 0.18 | L -0.807 ± 0.19 | H -0.752 ± 0.46 | T -0.49 ± 0.11 | P -1.03 ± 0.49 | V -0.93 ± 0.2 | W -0.268 ± 0.18 | R -0.589 ± 0.098 | A -0.833 ± 0.27 | C -0.695 ± 0.27
P47: Y -0.891 ± 0.36 | T -0.449 ± 0.34 | D -0.178 ± 0.094 | R -0.502 ± 0.086 | L -0.601 ± 0.12 | Q -0.348 ± 0.13 | A -0.07 ± 0.059 | W -0.832 ± 0.27 | C -0.109 ± 0.25 | V -0.591 ± 0.13
Y49: N -0.198 ± 0.3 | M -0.981 ± 0.49 | E -0.734 ± 0.29 | A -1.04 ± 0.23 | K -0.918 ± 0.5 | Q -0.85 ± 0.36 | C -0.914 ± 0.29 | L -0.906 ± 0.16 | G -1.11 ± 0.48 | W -0.551 ± 0.13 | R -0.9 ± 0.2 | S -0.891 ± 0.17 | H -0.94 ± 0.23 | V -0.969 ± 0.5 | P -0.942 ± 0.29
E30: H 0.019 ± 0.098 | P -1.17 ± 0.34 | L -0.368 ± 0.043 | G -0.273 ± 0.048 | K -0.13 ± 0.065 | S -0.222 ± 0.048 | T -0.186 ± 0.055 | A -0.133 ± 0.049 | V -0.275 ± 0.037 | C -0.117 ± 0.054 | W -0.455 ± 0.052 | D -0.424 ± 0.11 | I -0.458 ± 0.1 | R -0.184 ± 0.037 | N -0.116 ± 0.13 | F -0.234 ± 0.099 | Y -0.145 ± 0.1
S33: R -0.9 ± 0.12 | Y -0.424 ± 0.24 | W -0.98 ± 0.25 | I -0.492 ± 0.32 | D -1.07 ± 0.4 | L -0.865 ± 0.15 | G -0.872 ± 0.1 | K -0.957 ± 0.5 | V -1.01 ± 0.26 | T -1.04 ± 0.26 | M -0.673 ± 0.32 | H -0.933 ± 0.5 | F -0.99 ± 0.1 | Q -1.03 ± 0.31
L46: E 0.04 ± 0.1 | C -0.075 ± 0.15 | A 0.023 ± 0.1 | Q -0.262 ± 0.13 | V -0.98 ± 0.35 | T -0.863 ± 0.18 | N -0.767 ± 0.46 | F 0.047 ± 0.095 | W -0.237 ± 0.12 | R -0.146 ± 0.056 | K -0.051 ± 0.089 | Y -0.162 ± 0.14 | G -0.27 ± 0.037 | D -0.43 ± 0.21 | M -0.188 ± 0.13
R32: E -0.478 ± 0.18 | I -0.587 ± 0.35 | Y -0.417 ± 0.21 | Q -0.279 ± 0.089 | K -0.018 ± 0.1 | V -0.808 ± 0.14 | W -0.631 ± 0.14 | L -0.359 ± 0.088 | P -0.146 ± 0.087 | N -0.146 ± 0.1 | S -0.466 ± 0.08 | H 0.009 ± 0.22 | C -0.178 ± 0.1 | G 0.082 ± 0.061 | A -0.302 ± 0.071 | M -0.412 ± 0.23 | D -0.89 ± 0.42 | F -0.683 ± 0.23
